Results from patent US20080176814, “DNA-BASED APTAMERS FOR HUMAN CATHEPSIN G” (GENTIUM SPA, published 2008).
Like-named read-outs stand apart in the source and are kept apart here.

Tests used:
[1] = biological target: T1, Cathepsin G (Homo sapiens) (UniProt P08311); settings: affinity chromatography; same buffer
T1 sequence: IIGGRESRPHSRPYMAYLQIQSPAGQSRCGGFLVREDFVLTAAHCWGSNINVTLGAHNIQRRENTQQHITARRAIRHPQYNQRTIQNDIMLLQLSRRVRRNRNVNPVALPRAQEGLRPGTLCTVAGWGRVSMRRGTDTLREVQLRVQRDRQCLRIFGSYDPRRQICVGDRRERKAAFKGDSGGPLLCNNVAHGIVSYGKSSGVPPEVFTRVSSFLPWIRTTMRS

Cathepsin G [2] = biological target: T2, Cathepsin G (Homo sapiens, UniProt P08311 P08311:21-244); settings: affinity chromatography; G-quartet control
T2 sequence: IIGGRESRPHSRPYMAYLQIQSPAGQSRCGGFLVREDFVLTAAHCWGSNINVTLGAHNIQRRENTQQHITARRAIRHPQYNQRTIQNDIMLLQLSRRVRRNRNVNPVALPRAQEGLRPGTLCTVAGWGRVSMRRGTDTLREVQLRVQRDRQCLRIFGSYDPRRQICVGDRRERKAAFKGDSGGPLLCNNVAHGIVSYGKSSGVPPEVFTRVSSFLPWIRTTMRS

[3] = biological target: T1, Cathepsin G (Homo sapiens); experiment: SPR
[4] = biological target: T1, Cathepsin G (Homo sapiens); settings: affinity chromatography; same buffer; remark: listed apart in the source
[5] = biological target: T1, Cathepsin G (Homo sapiens); experiment: SELEX; settings: cycle 9 yield (0.4% at cycle 1); 30 mM Tris pH 7.5, 150 mM NaCl, 5 mM KCl, 5 mM MgCl2
Cathepsin G [6] = biological target: T2, Cathepsin G; experiment: affinity chromatography; same buffer; settings: tags: Europa Bioproducts or Calbiochem; from human neutrophils (SPR, amine-coupled to CM5 chip)
Description: The affinity of the oligonucleotides was determined by affinity chromatography as performed in the selection. Different aliquots of each oligonucleotide were previously incubated with 15 μg of Cathepsin G in ice. The solution was then loaded in the min-chromatography column used for the selection and washed with 15 volumes of buffer IB. After one hour incubation, it was washed with six volumes of buffer EB. Fractions of the same volumes were collected and counted.
We evaluated the oligonucleotide binding to cathepsin G by affinity chromatography in analogy with the selection method. The affinity of the aptamer CG51 was firstly compared with AC and GT oligonucleotides of the same length that, as mentioned, are clearly unable to fold into any structure characterised by Watson-Crick base pairs or G quartets formation. The complementary sequence of CG51, called cmpCG51, was included as a control.

[7] = relative potency vs GT 100, 25 C

Q: Which Kd [1] does the source give for AC [(AC)30] here?
A: 0.8 nM

Q: For THR thrombin aptamer, which Kd (Cathepsin G [2]) is on record?
A: 4 nM

Q: With AC [AC 40] as the molecule, how does the binding signal [3, 7] read?
A: 0.0047

Q: How did the Kd [4] turn out when GT [(GT)10 / GT 20] was run?
A: 2 nM

Q: With GT [GT 100] as the molecule, how does the binding signal ([3]; relative potency, reference standard, HBS-EP pH 7.4, 25 C) read?
A: 1

Q: AC [(AC)60] was tested. Which Kd [4] did it give?
A: 1.2 nM

Q: Which binding signal [3, 7] does the source give for AC [AC 80] here?
A: 0.017

Q: What does the source list for GT [(GT)40 / GT 80]?
A: binding signal [3, 7]: 0.32; Kd [4]: 1.2 nM

Q: For GT [(GT)20 / GT 40], which binding signal [3, 7] is on record?
A: 0.016

Q: What about the Kd [4] of the same molecule?
A: 1.5 nM

Q: For GT [GT 30], which binding signal [3, 7] is on record?
A: 0.002

Q: GT [(GT)30 / GT 60] was tested. Which binding signal [3, 7] did it give?
A: 0.144

Q: What about the Kd [1] of the same molecule?
A: 1 nM

Q: For “CGTACGGAATTCGCTAGCNNNNNNNNNNNNNNNNNNNNNNNNNNNNNNNNNNNNNNNNNNNNNNNNNNNNNNNNNNNNGGATCCGAGCTCCACGTG [cycle 9 selected pool]”, which binding signal [5] is on record?
A: 42%

B1: cmpCG51 (ssDNA)
DNA: ACACGAATACCCTCTGTGCTCAGCGTAACACCCAAGCGTATACCCACATATCACACGTTG
modifications: [NONE]
Q: How did the Kd (Cathepsin G [6]) turn out when B1 was run?
A: 0.6 nM
